This is an account of results in US20100047928A1 (CANON, published 2010).

The target of the assay is T1, Soluble hen egg-white lysozyme proteins (HEL; Seikagaku Corp. code No. 100940) (hen, UniProt P00698 19-147).
T1 construct: Bought protein, soluble; also called HEL proteins; target substances
The assay is described as follows: sandwich on gold/glass slide: immobilised fusion, 500 nM HEL, FITC-labelled anti-HEL polyclonal antibodies, fluorescence microscopy. Here is the method:
200 μl of 500 nM HEL proteins is added dropwise as target substances to the neighborhood of the boundary region between the gold layer and the glass layer of the slide glass completely washed in the step (ii). The slide glass is covered with a cover glass. After reaction at room temperature for 30 minutes, the slide glass is washed with each buffer. Next, 1 ml of 100 nM FITC-labeled HEL polyclonal antibodies was spotted thereonto and incubated in a moisture chamber. Then, the slide glass is washed with each buffer. FITC fluorescence at 520 nm is observed with a fluorescence microscope.

T1 sequence (P00698 19-147): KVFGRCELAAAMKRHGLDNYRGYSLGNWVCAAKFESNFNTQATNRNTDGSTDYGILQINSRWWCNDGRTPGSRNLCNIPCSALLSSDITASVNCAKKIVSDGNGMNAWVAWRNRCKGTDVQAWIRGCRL

B1: fusion protein of HEL-binding scFv (HyHEL10), Au-binding peptide region and SiO2-binding peptide region (scFv)
scFv: DIVLTQSPATLSVTPGNSVSLSCRASQSIGNNLHWYQQKSHESPRLLIKYASQSISGIPSRFSGSGSGTDFTLSINSVETEDFGMYFCQQSNSWPYTFGGGTKLEITAGGGGSGGGGSGGGGSDIQLQESGPSLVKPSQTLSLTCSVTGDSITSDYWSWIRKFPGNRLEYMGYVSYSGSTYYNPSLKSRISITRDTSKNQYYLDLNSVTTEDTATYYCANWDGDYWGQGTLVTVSAAGGGGSGGGGSGGGGSMHGKTQATSGTIQSMHGKTQATSGTIQSMHGKTQATSGTIQSMHSASGSGGGGSGGGSGGGSEGGGSEGGGSGGGSGSIPMHVHHKHPHVIPMHVHHKHPHV
notes: Secreted from E. coli by the pelB signal of pET-20b(+); In the assays it stood immobilised on a gold/glass substrate; also called target substance capturing body; sc-Fv-HyHEL10 fusion; not shown: His tag used for metal chelate purification (pET-20b(+) vector)
Turning to B1, the binding result is reported as “binds”.
